Assay results published in patent US20200040101A1 (ASKGENE PHARMA, published 2020).
One block for each binder: values may come before it.

How the values were obtained:
[1] = biological target: T1, human Claudin 18.2 (CLDN18.2) expressed on cells (human, UniProt P56856-2 1-261); experiment: FACS, hybridoma subclone supernatant, CLDN18.2 and CLDN18.1 cells in one plot
T1 construct: whole, on cells; also called CLD18.2; CLD18A2

[2] = biological target: T1, human Claudin 18.2 (CLDN18.2) expressed …; experiment: FACS, HEK 293 cells expressing CLDN18.2
[3] = biological target: T1, human Claudin 18.2 (CLDN18.2) expressed …; experiment: FACS, transfected HEK 293 cells, second 18.2 column
[4] = biological target: T2, Claudin-23; experiment: FACS, transfected HEK 293 cells
T2 construct: expressed on transiently transfected HEK 293 cells; the sheet prints only the number after Claudin-1
T2 sequence (Q96B33 1-292, species assumed, looked up): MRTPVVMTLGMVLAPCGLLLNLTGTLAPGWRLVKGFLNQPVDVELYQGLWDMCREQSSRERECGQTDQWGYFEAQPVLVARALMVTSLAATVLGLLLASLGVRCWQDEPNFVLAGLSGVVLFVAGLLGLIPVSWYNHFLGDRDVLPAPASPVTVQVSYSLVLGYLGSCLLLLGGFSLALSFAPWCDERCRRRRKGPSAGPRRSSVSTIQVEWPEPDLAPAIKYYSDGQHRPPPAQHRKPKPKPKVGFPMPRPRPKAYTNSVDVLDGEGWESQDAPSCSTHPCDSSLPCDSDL

[5] = biological target: T3, Claudin-4; experiment: FACS, transfected HEK 293 cells
T3 construct: expressed on transiently transfected HEK 293 cells; the sheet prints only the number after Claudin-1

[6] = biological target: T4, Claudin-17; experiment: FACS, transfected HEK 293 cells
T4 construct: expressed on transiently transfected HEK 293 cells; the sheet prints only the number after Claudin-1
T4 sequence (P56750 whole entry, species assumed, looked up): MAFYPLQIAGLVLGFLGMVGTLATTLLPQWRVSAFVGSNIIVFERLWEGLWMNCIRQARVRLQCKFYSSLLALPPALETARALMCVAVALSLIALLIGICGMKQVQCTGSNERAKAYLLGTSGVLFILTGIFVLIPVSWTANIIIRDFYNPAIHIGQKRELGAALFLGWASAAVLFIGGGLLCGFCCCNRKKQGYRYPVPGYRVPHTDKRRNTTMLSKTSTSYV

[7] = biological target: T5, Claudin-12; experiment: FACS, transfected HEK 293 cells
T5 construct: expressed on transiently transfected HEK 293 cells; the sheet prints only the number after Claudin-1

[8] = biological target: T6, CLDN 7 expressed on HEK 293 cells (UniProt O95471 1-211, limits assumed); experiment: FACS, transfected HEK 293 cells
T6 construct: whole, on cells
T6 sequence (looked up): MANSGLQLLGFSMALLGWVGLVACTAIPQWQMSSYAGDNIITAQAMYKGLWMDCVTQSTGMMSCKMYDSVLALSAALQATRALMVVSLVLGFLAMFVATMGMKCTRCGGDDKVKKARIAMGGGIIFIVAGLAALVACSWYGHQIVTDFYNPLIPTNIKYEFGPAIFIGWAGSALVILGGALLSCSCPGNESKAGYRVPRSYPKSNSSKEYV

[9] = biological target: T7, Claudin-22; experiment: FACS, transfected HEK 293 cells
T7 construct: expressed on transiently transfected HEK 293 cells; the sheet prints only the number after Claudin-1

[10] = biological target: T8, Claudin-1; experiment: FACS, transfected HEK 293 cells
T8 construct: expressed on transiently transfected HEK 293 cells

[11] = biological target: T9, Claudin-19; experiment: FACS, transfected HEK 293 cells
T9 construct: expressed on transiently transfected HEK 293 cells; the sheet prints only the number after Claudin-1
T9 sequence (Q8N6F1 whole entry, species assumed, looked up): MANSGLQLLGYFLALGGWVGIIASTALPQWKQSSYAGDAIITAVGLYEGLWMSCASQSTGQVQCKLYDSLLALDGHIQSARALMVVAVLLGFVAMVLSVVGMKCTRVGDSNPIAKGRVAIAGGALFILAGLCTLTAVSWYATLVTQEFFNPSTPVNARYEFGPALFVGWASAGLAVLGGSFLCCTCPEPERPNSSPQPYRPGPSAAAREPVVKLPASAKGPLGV

[12] = biological target: T10, Claudin-8; experiment: FACS, transfected HEK 293 cells
T10 construct: expressed on transiently transfected HEK 293 cells; the sheet prints only the number after Claudin-1

[13] = biological target: T11, Claudin-3; experiment: FACS, transfected HEK 293 cells
T11 construct: expressed on transiently transfected HEK 293 cells; the sheet prints only the number after Claudin-1

[14] = biological target: T12, Claudin-2; experiment: FACS, transfected HEK 293 cells
T12 construct: expressed on transiently transfected HEK 293 cells; the sheet prints only the number after Claudin-1
T12 sequence (P57739 whole entry, species assumed, looked up): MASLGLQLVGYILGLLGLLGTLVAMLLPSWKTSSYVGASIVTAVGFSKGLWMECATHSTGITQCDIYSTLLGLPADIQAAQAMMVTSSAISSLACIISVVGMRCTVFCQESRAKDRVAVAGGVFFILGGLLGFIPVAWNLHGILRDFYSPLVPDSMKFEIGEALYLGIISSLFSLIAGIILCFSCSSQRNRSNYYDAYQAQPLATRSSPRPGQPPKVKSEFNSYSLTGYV

[15] = biological target: T13, Claudin-34; experiment: FACS, transfected HEK 293 cells
T13 construct: expressed on transiently transfected HEK 293 cells; the sheet prints only the number after Claudin-1

[16] = biological target: T14, Claudin-11; experiment: FACS, transfected HEK 293 cells
T14 construct: expressed on transiently transfected HEK 293 cells; the sheet prints only the number after Claudin-1
T14 sequence (O75508 whole entry, species assumed, looked up): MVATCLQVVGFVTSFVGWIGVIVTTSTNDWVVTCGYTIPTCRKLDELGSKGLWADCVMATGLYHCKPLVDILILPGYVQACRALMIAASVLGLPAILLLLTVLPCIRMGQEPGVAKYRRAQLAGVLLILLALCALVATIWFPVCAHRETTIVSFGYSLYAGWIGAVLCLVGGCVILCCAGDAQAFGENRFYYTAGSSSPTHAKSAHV

[17] = biological target: T15, Claudin-16; experiment: FACS, transfected HEK 293 cells
T15 construct: expressed on transiently transfected HEK 293 cells; the sheet prints only the number after Claudin-1
T15 sequence (Q9Y5I7 1-235, species assumed, looked up): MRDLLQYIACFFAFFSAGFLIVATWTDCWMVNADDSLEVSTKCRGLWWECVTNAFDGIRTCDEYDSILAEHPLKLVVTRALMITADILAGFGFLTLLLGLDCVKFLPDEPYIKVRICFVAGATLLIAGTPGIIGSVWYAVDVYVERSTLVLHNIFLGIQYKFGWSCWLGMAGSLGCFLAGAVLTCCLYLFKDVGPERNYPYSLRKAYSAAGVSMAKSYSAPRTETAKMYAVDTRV

[18] = biological target: T16, Claudin-14; experiment: FACS, transfected HEK 293 cells
T16 construct: expressed on transiently transfected HEK 293 cells; the sheet prints only the number after Claudin-1

[19] = biological target: T17, Claudin-5; experiment: FACS, transfected HEK 293 cells
T17 construct: expressed on transiently transfected HEK 293 cells; the sheet prints only the number after Claudin-1
T17 sequence (O00501 whole entry, species assumed, looked up): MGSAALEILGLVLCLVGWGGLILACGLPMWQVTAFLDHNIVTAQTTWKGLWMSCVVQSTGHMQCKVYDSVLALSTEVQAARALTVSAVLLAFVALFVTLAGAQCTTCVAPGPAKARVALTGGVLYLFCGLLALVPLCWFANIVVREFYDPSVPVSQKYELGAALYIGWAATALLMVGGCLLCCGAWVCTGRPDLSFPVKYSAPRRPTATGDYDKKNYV

[20] = biological target: T18, Claudin-10; experiment: FACS, transfected HEK 293 cells
T18 construct: expressed on transiently transfected HEK 293 cells; the sheet prints only the number after Claudin-1
T18 sequence (P78369 1-228, species assumed, looked up): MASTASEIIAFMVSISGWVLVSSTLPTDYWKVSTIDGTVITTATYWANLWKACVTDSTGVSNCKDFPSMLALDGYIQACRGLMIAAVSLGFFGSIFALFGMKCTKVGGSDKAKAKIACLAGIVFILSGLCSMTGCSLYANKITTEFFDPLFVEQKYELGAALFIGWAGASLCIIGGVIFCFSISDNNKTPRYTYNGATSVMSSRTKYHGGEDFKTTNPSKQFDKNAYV

[21] = biological target: T19, Claudin-9; experiment: FACS, transfected HEK 293 cells
T19 construct: expressed on transiently transfected HEK 293 cells; the sheet prints only the number after Claudin-1

[22] = biological target: T1, human Claudin 18.2 (CLDN18.2) expressed …; experiment: FACS, transfected HEK 293 cells, first 18.2 column

- binding result [1]: binds
B1: 85H12 (mouse hybridoma subclone antibody) (antibody, V domains shown)
VH: EVKLEESGGGLVQPGGSMKLSCVASGFTFSNYWMNWVRQSPEKGLEWVAEIRLKSKNYATHYAESVKGRFTISRDDSIGSVYLQMNNLRAEDTGIYYCARGHYGTNYGDYWGQGTSVTVSS
VL: DIVMTQSPSSLTVTAGEKVTVSCKSSQSLFNSGNQKHYLTWYQQKPGQPPKLLIYRASTRESGVPDRFTGSGSGTDFTLTIRNVQAEDLAVYYCQNDYSFPLTFGAGTKLELK
notes: also remade as chimeric antibody with human IgG1 and kappa

- MFI [3]: 4650
- MFI [4]: 19.3
- MFI [5]: 20.7
- MFI [6]: 21.7
- MFI [7]: 21.9
- MFI [8]: 21.5
- MFI [9]: 21.1
- MFI [10]: 23.4
- MFI [11]: 20.5
- MFI [12]: 20.4
- MFI [13]: 21.4
- MFI [14]: 22.3
- MFI [15]: 20.7
- MFI [16]: 19.4
- MFI [17]: 21
- MFI [18]: 20.1
- MFI [19]: 20
- MFI [20]: 23.2
- MFI [21]: 20.5
- MFI [22]: 4820
B3: ASK589-M1 (antibody, V domains shown)
VH: QVQLVQSGAEVKKPGASVKVSCKASGYTFTSYVINWVRQATGQGLEWIGEIHPRGGNTYYSEKFRGRVTLTADTSISTAYMELSSLRSEDTAVYYCAILRRGNAMDYWDQGTTVTVSS
VL: DIVMTQSPSSLAVSLGEMATINCKSSQSLLNSGNQRNYLTWYQQKPGQPPKLLIYWASTRESGVPDRFSGSGSGTDFTLTISSLQAEDVAVYYCQNSYNYPYTFGQGTKLERK
notes: Humanized mouse antibody from 11E12 (hu11E12VHv1 with hu11E12VLv1); also called Molecule M1; M1_DS

The next lines start with the binder.

B2: M5 (mutated version of M1) (antibody, V domains shown)
VH: QVQLVQSGAEVKKPGASVKVSCKASGYTFTSYVINWVRQATGQGLEWIGEIHPRGGNTYYSEKFRGRVTLTADTSISTAYMELSSLRSEDTAVYYCARLRRGNAMDYWDQGTTVTVSS
VL: DIVMTQSPSSLAVSLGEMATINCKSSQSLLNSGNQRNYLTWYQQKPGQPPKLLIYWASTRESGVPDRFSGSGSGTDFTLTISSLQAEDVAVYYCQNSYNYPYTFGQGTKLERK
notes: Humanized mouse antibody from 11E12 (hu11E12VHv1B with hu11E12VLv1); also called ASK-M5_DS; Molecule M5
- EC50 (read off the curve) [2]: ~0.3 µg/mL
- MFI [3]: 2810
- MFI [4]: 21.7
- MFI [5]: 21.8
- MFI [6]: 21.9
- MFI [7]: 21.6
- MFI [8]: 23.4
- MFI [9]: 22.2
- MFI [10]: 23.6
- MFI [11]: 21.3
- MFI [12]: 20.8
- MFI [13]: 23.3
- MFI [14]: 22
- MFI [15]: 24.1
- MFI [16]: 20.3
- MFI [17]: 21.8
- MFI [18]: 22.4
- MFI [19]: 21.2
- MFI [20]: 22.3
- MFI [21]: 21.7
- MFI [22]: 3610

B4: ASK589-B (antibody, human IgG1, kappa, V domains shown)
VH: EVQLVESGGGLVKPGGSLRLSCAVSGFYFNRGYWICWVRQAPGKGLEWIGCIDTGSGVPYYANWAKGRFTISRHTSKTTLTLQMNSLRAEDTASYFCARNSDSIYFNIWGPGTLVTVSS
VL: DIVMTQSPSSLSASVGDRVTITCQASQSIGGYISWYQQKPGKAPKLLIYKASTLASGVPSRFSGSGSGTDFTLTISSLQPEDFATYYCQNYAGVSIYGAVFGGGTKVVIKR
notes: Humanized rabbit antibody (from Clone 46; HC5M1 with LC1M1); also called Molecule B
- EC50 (read off the curve) [2]: ~0.3 µg/mL
- MFI [3]: 4050
- MFI [4]: 22
- MFI [5]: 22
- MFI [6]: 21.8
- MFI [7]: 20.7
- MFI [8]: 22.6
- binding result [8]: no binding
- MFI [9]: 29.1
- MFI [10]: 22.8
- MFI [11]: 21
- MFI [12]: 21.4
- MFI [13]: 23.8
- MFI [14]: 21.3
- MFI [15]: 22.3
- MFI [16]: 20.9
- MFI [17]: 24.5
- MFI [18]: 21.7
- MFI [19]: 20.3
- MFI [20]: 23
- MFI [21]: 21.8
- MFI [22]: 3870
